Assay results as given in patent publication US20090010911A1, “METHODS AND COMPOSITIONS FOR AFFECTING CYCLOPHILIN A REGULATION OF KINASES IN MODULATING CELLULAR ACTIVITIES” (IOWA STATE UNIVERSITY RESEARCH FOUNDATION, INC., priority 2007, published 2009).

Biological target: T1, Itk LKD enzyme (Mus musculus, UniProt Q03526)
T1 construct: linker kinase domain (Itk LKD); made in house; host or cells: Sf9 insect cells (baculovirus), co-infected 1:1 with Lck baculovirus
T1 sequence (Q03526 344-625 limits assumed): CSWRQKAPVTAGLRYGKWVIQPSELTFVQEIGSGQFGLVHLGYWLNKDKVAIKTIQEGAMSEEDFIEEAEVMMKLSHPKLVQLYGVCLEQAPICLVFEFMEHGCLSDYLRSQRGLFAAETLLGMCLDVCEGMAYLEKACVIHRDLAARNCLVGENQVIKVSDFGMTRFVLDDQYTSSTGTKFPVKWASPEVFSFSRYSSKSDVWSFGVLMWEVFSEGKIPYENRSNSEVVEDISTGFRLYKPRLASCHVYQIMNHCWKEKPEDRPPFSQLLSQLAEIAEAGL
Assay: Quantitative kinase assay, Km determination for Peptide B and PLCγ1 SH2C-Peptide B fusion
Type: biochemical
Description: 5(a) Construction of a PLCγ1 SH2C-Peptide B fusion protein was based on alignment of Y783 within the PLCγ1 linker and the Tyr of Peptide B. The 14 amino acids of Peptide B were used to replace the last 16 amino acids of PLCγ1 SH2C-Y783-. The Tyr that is phosphorylated in each substrate is boxed. A mutant construct is also shown that contains serine in place of the tyrosine of peptide B. This site was mutated to serine instead of phenylalanine due to solubility problems associated with the Tyr to Phe mutation. 5(b) FLAG-tagged Itk LKD enzyme (1 μM) was incubated with 20 μM of the PLCγ1 SH2C-Peptide B fusion protein (lane 4) or 20 μM of the PLCγ1 SH2C-Peptide B(YS) mutant protein (lane 5) in an in vitro kinase assay. Lanes 1-3 are Itk enzyme alone, PLCγ1 SH2C-Peptide B substrate alone and PLCγ1 SH2C-Peptide B(YS) substrate alone, respectively, that have each been subjected to the same in vitro kinase assay conditions. (c & d) FLAG-tagged Itk LKD enzyme was incubated with increasing amounts of biotinylated PLCγ1 SH2C-Peptide B 5(c) or biotinylated Peptide B alone 5(d) in an in vitro kinase assay. 5(e) Kinetic parameters describing phosphorylation of Peptide B and the PLCγ1 SH2C-Peptide B fusion protein by Itk. Data shown are the average of two independent experiments.
Kinase assays and Western Blotting—Itk Full-length (FL), linker kinase domain (Itk LKD), kinase domain (Itk KD), full-length Btk or full-length Tec were incubated with the indicated substrates in an in vitro kinase assay buffer (50 mM Hepes pH 7.0, 10 mM MgCl2, 1 mM DTT, 1 mg/ml BSA, 1 mM Pefabloc and 200 μM ATP) for one hour at RT. The samples were boiled, separated by SDS-PAGE and transferred onto a PVDF membrane. The membranes were then blotted with either phosphotyrosine specific antibodies (anti-pY783 for PLCγ1 or pY223 Btk antibody used to detect pY180 in Itk, pY187 in Tec and pY223 in Btk (18)), an anti-phosphotyrosine antibody (4G10 from Upstate), or an anti-FLAG antibody (Sigma) and developed by standard chemiluminescence (Pierce) methods. Quantitative kinase assays (25): Km determinations for Peptide B [(Aminohexanoyl biotin-EQEDEPEGIYGVLF-NH2) (Anaspec Inc.)] and the biotinylated PLCγ1 SH2C-Peptide B fusion were carried out by incubating purified Itk LKD enzyme in reaction buffer (50 mM Hepes pH 7.0, 10 mM MgCl2, 1 mM DTT, 1 mg/ml BSA, 1 mM Pefabloc SC (4-(2-aminoethyl)-benzenesulfonyl-fluoride) and 200 μM ATP) and 5 μCi [^32P] ATP (GE Healthcare) at room temperature. Peptide B concentration was varied between 0-400 μM and PLCγ1 SH2C-Peptide B fusion concentration was varied between 0-80 μM. The enzyme concentration used for kinetic analysis was 0.9 μM. Each assay was done in duplicate. […]

B1: SH2-Peptide B fusion: PLCγ1 SH2C domain covalently linked to the amino terminus of Peptide B, biotinylated fusion protein (protein)
chain: QTNAHESKEWYHASLTRAQAEHMLMRVPRDGAFLVRKRNEPNSYAISFRAEGKIKHCRVQQEGQTVMLGNSEFDSLVDLISYYEKHPLYRKMKLRYPINEEALEKIGTAEPDFGAEQEDEPEGIYGVLF
modifications: left off: things letters cannot carry
notes: PLCγ1 SH2C domain covalently linked to the amino terminus of Peptide B, biotinylated fusion protein
better substrate (kcat/Km) (compared to Peptide B alone): 7 fold | increase in substrate affinity (compared to Peptide B alone): 15 fold | kcat value, change on attachment of PLCγ1 SH2C domain to Peptide B (compared to Peptide B alone): only changed to a small extent | Km (phosphorylation by Itk LKD enzyme 0.9 μM, 200 μM ATP, room temperature): 5.64 µM
